Laboratory results from the DeepSol protein solubility set.

assay: soluble on expression in E. coli; label from the status in PepcDB or PDB records

**Q.** With “MMKRARIIYNPTSGRELFKKSLPEVLQKLEQAGYEASCHATTGPGDATVAARQAADRKFDVVIAAGGDGTLNEVVNGLVGHEHRPKFGIIPVGTTNDFARAIGVPRSIEEAADIICEGKTVPLDLGRANDTYFINIAGGGRITELTYEVPSKLKTVLGQLAYYLKGIEMLPSLHPTYVEIEYDGKLLQEEITMFLITNTRSVGGFEKVAPYASINDGLFDLLVLKKGSIADLIKAATQAQRGEHINNPKVLYTQANRIKVHSPDKLMINLDGEYGGDAPMEFENIYHCLELFVPEHQEDAL” as the sequence, how does the “soluble on expression in E. coli” value read?
**A.** not soluble

**Q.** With “MGSDKIHHHHHHMIVAVGKDEEKIKESLEEMKGLCKTLGVEVVEWLWQKRAKPDPATYLGKGKLQKLKEVVEFCEADLVVVDDEITPVQYKNMQSELNVDVLDRTQVILEIFARHATSEEGKLQVEMASLLYELPRLVGKGEELSRLGGGIGTRGPGEPLLEVLRRHIKNRIAQLRKRLKEIEQERNTQRKQRLEKKIPHVSIVGYTNAGKSTLLKVLTDSDVYVADKLFATLEPVTRRLKLKSGRVILVSDTVGFIRKLPHTIVSAFKATLEEIKYSDVLIHLVDASDPYLEEKMKASEKVLEEIGADKIPRILVFNKIDLCPRERIETLKWKYPEALFISAEKRIGLDQLLDRLEEVISQRDVQETLKVPLEKIGQIYALKDRLEILNEDYREGYALITLKTDRETLEMLKRKVAS” as the sequence, how does the “soluble on expression in E. coli” value read?
**A.** not soluble

**Q.** With “MSKDSNKIIEQSREIGISIIMPLYNVEEVILETLESIHEQTFDSYEVLLIDDGSTDKTIEIVTEYIKDKPRFKLYTQPNGGPASARNHGLRLAIGMYICFVDSDDILPNYSLQLMYDGAISTGAKLITGATKRFNSEGEWFIPMHIQYNIAKPGMKTLLKNPELFYSIGPCAKLYHHSLIDGVFFPENIRYGEDQPFVLHALLQAKDIYTVEKVVYYYRLRDGESQSLTQSVDKDPIRILKSVFQIFDYGEEELKKNNTDYEVALKYYQRVSSVELWGALRAAIESKKSENQKIAFTMTLDWLKTKSDDFLNIIPSFRYFLLFSSIERVRYITKDNKENYRNLIGYLWSRQGEEAKIAFRKTYPIPMKAALQIIENNNWRDARKISFKFIVRRKFKAPILIRKISRGIIFRIATLMPRKKNQVILATERSTTLEGNLLAIYDYMFYNNMPQKVYVFLRKNRNWFEMFQLYYTLGRTKTIVLDDYYNKIYGLKFNKNTHVVQSWHATGAFKKFGFSALEGTDANTEEFETRAHSPYTDVLVSSEGIIPEYMEAFRKQANQIKPIGVPRTDVFFDDEYVNYTKEKYMKMYPQLRDKKILLYAPTFRGGPNERFNYSVVLDIAALKKELGDTHILILKFHPVIKNVSFNVEEDDPFILNLTLNNDINDLMLFSDALITDYSSVIFEFSLMNKPIYFFAYDIDDYLDERGFYFDYKATIPGEVFRDTPSLIEAVKSGLYNYDELEIFKKKFVGSLDGNSTKRFVETYIGKANEKVKDILEHHHHHH” as the sequence, how does the “soluble on expression in E. coli” value read?
**A.** soluble

**Q.** Which “soluble on expression in E. coli” value does the source give for “MGSSHHHHHHSSGLVPRGSRHSTLDFMLGAKADGETILKGLQSIFQEQGMAESVHTWQDHGYLATYTNKNGSFANLRIYPHGLVLLDLQSYDGDAQGKEEIDSILNKVEERMKELSQDSTGRVKRLPPIVRGGAIDRYWPTADGRLVEYDIDEVVYDEDSPYQNIKILHSKQFGNILILSGDVNLAESDLAYTRAIMGSGKEDYTGKDVLILGGGDGGILCEIVKLKPKMVTMVEIDQMVIDGCKKYMRKTCGDVLDNLKGDCYQVLIEDCIPVLKRYAKEGREFDYVINDLTAVPISTSPEEDSTWEFLRLILDLSMKVLKQDGKYFTQGNCVNLTEALSLYEEQLGRLYCPVEFSKEIVCVPSYLELWVFYTVWKKAKP” here?
**A.** soluble

**Q.** With “MGSDKIHHHHHHMLGKGVVDYTREGSILSAEQRRFYEKNGYLLIRNCVPQYELNRFRQRFQDICEKKVKAPENMTVMKDISIAKSEFKDGEKAITKIQDFADDPVLFEYCKYPGVVDVVKDLIGNPKSNLMAMHTMLINKPPDNGKLTSRHPMHQDLQYFPFRPADFICCAWTAMEKITRANGCLVVVPGTHKGVLLPHEYPKWEGGVNKAYHGIQDYDTSTPRIHVEMEPGDTVFFHPILIHGSGANRTEGFRKAISCHYANDDLCRYVNVEGTTQETLAEEIIEIAKKRLTRYGLDPNTVTLDFADIWRVRAREVNGRRSNL” as the sequence, how does the “soluble on expression in E. coli” value read?
**A.** not soluble

**Q.** For “IDKAIRDGNVLGFRTEYYKTLSEKDDIDDETSSTGIDKKEALENPIRISEIVDFILKNYNRLTKRNEEFFEHNKIANINEVITSRNKLSENKVLTTLNGFNSILACSSINAAKIYYSEFKKQQQKFPQEEKLKIGLIYSYLPSEQ”, which “soluble on expression in E. coli” value is on record?
**A.** not soluble

**Q.** For “MGSDKIHHHHHHMSAIHIKYPALTFKAGQRALRHIRERGLQAADVGVLPGAAGGPKPLGIQGLDLALFGEWLPSAPRQRALIGASIGAWRFASACLDDPVAGIRRLGELYTEQDFAKGVTPAEISRSCQRMLDDLLEGRDGQLLANPHYRLNILVVKSHGQLAHDHRGRLGLGLGSVVASNLLGRSRLARHFERIILHDGRAAPPLDTLTDFPSRYLPLDLTNLRHALLASGSIPMVMQGVKDIPGAGAGTYRDGGLLDYHLDLPYRGDDLVLYPHFTDKVVPGWFDKALPWRKGDATRLQNVLLMTPSPQYLAALPYGKLPDRNDFKRFMGDAPGRKRYWYKAIAESQRLGDELLELTATGRLHERLQAL”, which “soluble on expression in E. coli” value is on record?
**A.** not soluble

**Q.** With “MSLSEVQPIPVTVSQYSYYSDKNYPKRRTMEDAHVICDPLIEVEGRVYSLYAIFDGHRGRTAAQHCAKIVKDKIKEVLQRKDEGFEEMMQDAMYEMDMSLKENGIEYSGCCALMCIIEIKDKKRIIHMANCGDSCGIIIGTNEVIPMSEEHKATNENEAKRIKESGGMIINGRVSGDVAVTRGLGDHHLKQWVVSEPFVKEVEWQEDYKYIVLGCDGLWDTLNGNQIKEVLESNNCEFTSSAKSLTQLAIGKGSTDNITTIVLKLEGHHHHHH” as the sequence, how does the “soluble on expression in E. coli” value read?
**A.** soluble

**Q.** With “MGSDKIHHHHHHMAAELKTITVLGAGGKMGMRISANFQKSDYQVFYCENSPRAQEQVVAAGRELSIAEQVIPESDVVILAVPDIALKAVSGIVVPQMKSNAVLLTLDPAAAYANLIAKRDDIDYAVAHPCHPSVFLDRFTPEEHADAFGGVAAPQHVAASYETGSDEQKATLARVVKVMYGPVIDVHWVTVKQLAYLEPTLVETVACMVGTLMKEALDETINTIGVPEAAAKAMLYGHIQIALAVAFRSTNPFSDACMIAIEYGKENIIKPDWKKIFDEKELDLVIAKMLKIDAIER” as the sequence, how does the “soluble on expression in E. coli” value read?
**A.** not soluble

**Q.** With “MITGETEPACVEDASQLAEQRNGAPVMEAGCAAVPVEANATKRGYWRQRTLHSWFIGRKPQRTCIAVDIDEVLAFFVPELCAFHNKRYGTRLQATDFHSYRFAEVWGGTDTDAIRKVHEFFRTPAFQELQPIPGAKQVLQSRLARFRFVVVTSRQLVIEQETRAWLDKHFSGIFEAIYLGNQWALHPNGEHGTGVGSAAQEPQRLFANRRRKSQVCKACGAAVLIDDLPHNLLDCSENGVFGVLFDFQGQYGWSKSPAFESKDIAVVHSWEAVGELLDRL” as the sequence, how does the “soluble on expression in E. coli” value read?
**A.** not soluble

**Q.** With “MSMSVILRKSLIEVLNKKNEKKKDVAREISTSQQSLSDWTSQNNVKPVTIENALRLSDHFRDSTFTMEVIHQFFGMFKTCDGDVYRKDPSSLDRLQKIESNERKALKHDIERIVLKNPEYLSEQDISKIVAYANEYLDEVIVEITLLSSLCDLASIDIRYLSEQRFPYWEQLGYMRKENTNGTRSY” as the sequence, how does the “soluble on expression in E. coli” value read?
**A.** not soluble

**Q.** Which “soluble on expression in E. coli” value does the source give for “INDWSYSIGANFSYVTTKIMDLKGGDTPGQSVGDPLWAYYGYVCDGIFQNEEEIKNHPTQSMGTPVPGDLKYRDLNGDKVVDSKDRQVLGSYFPKINFGLNLSVQYKDFDLSALLQGAADVKSAPVAEIRYAFYNGGKVTEQHLDRWTPENPNATYPRLSMSDSKNRVTSSFWMQDASYAKLRNLQVGYSLPKQLISKYGISRLRVYCSIDNLFMISGFDGVDPEAISGNYYPLTRNYSFGLNVTF” here?
**A.** not soluble

**Q.** For “MILNNESNKKKKFEQFFIMTYPKVKAFAWKLLKSEEDAEDIAQDIFAKLWTNPEIWENQETWNSYIYTMVRNHIYNFLKHKSIRQTYQEQCTKEEPAISETDIHDQLYAKESELLIKLTIANMPEQRRKIFRMSRTQEKSNQEIADELNISIRTVERHIYLALIDLKKVLLTLFFFYLG”, which “soluble on expression in E. coli” value is on record?
**A.** not soluble
